Assay results: publication PMC7438487, “Structural studies reveal flexible roof of active site responsible for ω-transaminase CrmG overcoming by-product inhibition” (Communications Biology, 2020)

Biological target: ω-transaminase CrmG from Actinoalloteichus cyanogriseus WH1-2216-6 (Actinoalloteichus cyanogriseus WH1-2216-6)
Test: dynamic light scattering; apo CrmG at 4.8 mg/mL in 50 mM Tris buffer pH 7.5, 20 °C, DynaPro Titan

stoichiometry N: 2
Substance: ω-transaminase CrmG from Actinoalloteichus cyanogriseus WH1-2216-6 (enzyme)
